# Reference: patent publication US20050255113A1, “Methods and compositions for inhibiting polypeptide accumulation associated with neurological disorders” (New York State Department of Health and Abgenix, Inc., priority 1999, published 2005)
# How the values were obtained:
# [1] = molecular target: T1, GST-DRPLA-35Q (Homo sapiens, UniProt P54259, DUP487-502); experiment: Affinity purification of sFv with GST-fusion antigens (glutathione-Sepharose, SDS-PAGE, immunoblot); format: binding; details: 3 μg sFv with 4 μg antigen, 1 hr room temperature
# T1 construct: made in house; host or cells: E. coli BL21
# T1 sequence (P54259 with tags, fused parts or gaps DUP487-502): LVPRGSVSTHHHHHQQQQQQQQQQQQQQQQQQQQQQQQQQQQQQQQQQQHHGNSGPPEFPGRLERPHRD
# Procedure: (§1) About 3 ug of N-HD-C4 sFv was mixed with 4 ug of either GST-DRPLA-Q35 or GST-HD-Q25 or GST-HD-Q42 in PBS (200 μl final volume) and rocked for 1 h at RT. Twenty microliters of glutathione Sepharose 4B beads (50% slurry, pre-washed with PBS) was added and incubated for another 30 min at RT to capture the sFv/GST fusion protein complexes. The beads were harvested by centrifugation at 12,000×g for 10 sec and washed thrice with 1 ml PBS. The complexes were eluted with 10 μl of 50 mM Tris pH 8.0 containing 10 mM reduced glutathione for 10 min at RT. Tubes were then centrifuged at 12,000×g for 1 min and the supernatants containing the soluble complexes were transferred to new tubes, mixed with an equal volume of 2× SDS-sample buffer and heated at 95° C. before being loaded on SDS-PAGE.
# (§2) About 3 μg of each clone were incubated in solution for 1 hour at room temperature with 4 ug of either GST-DRPLA-Q35, GST-HD-Q25 or GST-HD-Q42. Then, a 10 μl bed volume of glutathione-Sepharose 4B (Pharmacia) was added to each tube to precipitate the GST-fusion protein/sFv complexes. After 30 min incubation, tubes were centrifuged and the pellets washed 3 times with 1 ml PBS. The complexes were eluted from glutathione-Sepharose beads by addition of 10 mM reduced glutathione to the pellets.
# (§3) After centrifugation, supernatants containing the eluted complexes were transferred to new tubes and mixed with an equal volume of 2× SDS-loading buffer. The samples were boiled and the proteins separated on a 12% SDS-PAGE. Protein bands were visualized by Coomassie blue staining, and/or transferred to nitrocellulose membranes in order to detect the sFv molecules by immunoblot.
# (§4) The binding specificities of the selected sFv clones were tested by affinity binding to a full range of antigens, as follows: (a) using sample numbers that correspond to the experimental results in FIGS. 9 and 10, about 3 μg of α-Nt-HD-C4 sFv clone 1 (lanes 2-4) or α-Nt-HD-C4 sFv clone 2 (lanes 5-7) were mixed with 4 μg of the following antigens and incubated in solution for 1 hr at room temperature (lanes 2 and 5) GST-DRPLA-35Q, (lanes 3 and 6) GST-HD-25Q, (4 and 7) GST-HD-42Q; (b) a 10 μl bed volume of glutathione-Sepharose 4B (Pharmacia) was added to each tube to bind all GST-containing protein complexes; the beads were washed with 10 mM glutathione solution, which eluted the GST-antigen or the sFv-antigen complex, and these eluates were analyzed by SDS-PAGE. Protein bands were visualized by Coomassie blue staining (FIG. 9) and were also transferred to nitrocellulose membranes in order to detect the sFv molecules by immunoblot blot (FIG. 10).
# [2] = test system: GST-HD-25Q, GST-HD-42Q; experiment: as above; format: binding; details: 3 μg sFv with 4 μg antigen, 1 hr room temperature; Coomassie and immunoblot
# Chain of GST-HD-25Q, GST-HD-42Q (as listed by the source): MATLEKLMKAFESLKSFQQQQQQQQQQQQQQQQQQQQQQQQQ
# Procedure: as §1, §2, §3, §4
# [3] = test system: HD-polyQ-GFP aggregation in COS-7, BHK-21 and HEK 293 cells; experiment: Quantitation of SDS-insoluble fluorescent aggregates after co-transfection of sFv and HD-polyQ-GFP; format: cell-based; details: for number of SDS-insoluble fluorescent aggregates: intrabody to antigen plasmid ratio 5:1, HD-polyQ72 or Q104, 48 hours, COS-7, BHK-21, HEK 293, versus empty vector/control
# Procedure: Cells are shown photographed live at 48 hours after transfection by the calcium phosphate method; aggregates appear as intense foci of GFP signals. […] […] Cells were lysed with 2% SDS/2% Triton X-100/50 mM Tris at 48 hours after co-transfection. The number of insoluble, fluorescent aggregates in six or eight random fields was counted. Bars represent means of sextuplicate co-transfections ±SEM.
# In particular, it was observed that the formation of pathological HD aggregates in situ display a striking punctate fluorescent morphology with polyglutamine lengths of 40 or more residues (i.e., with Q72 or Q104, but not Q25; FIG. 14). In addition, because these polypeptide aggregates are detergent-insoluble, a method for improved quantitation of residual fluorescent bodies after SDS lysis of transfected cells could be performed (Kazantsev et al., PNAS 96:11404-11409 (1999)). This improved assay allows for polypeptide aggregates to be more accurately enumerated because the plane of focus is eliminated as a variable in the experiment. Accordingly, this assay was utilized for quantitation of polyQ antigen aggregation, alone or in the presence of C4 sFv or control intrabody. COS-7, BHK, and 293 cells were co-transfected with plasmids that express the C4 or a control intrabody and HD-polyQ-eGFP fusions containing Q25, Q72, or Q104.
# [4] = test system: N-terminal HD sequence (Nt-HD); experiment: ELISA of sFv binding to immobilized GST-fusion proteins / biotinylated Nt-HD peptide; details: plates with streptavidin, GST-HD-42Q, GST-HD-65Q, GST-DRPLA-35Q
# Procedure: As described in Example 2, four rounds of selection were performed with decreasing concentrations of antigen at each round (100 nM, 50 nM, 10 nM, 1 nM). After the third round, bacterial clones were screened to isolate those which secreted sFv molecules specific to the N-terminal HD sequence. Screening was performed by ELISA. Bacterial supernatants containing secreted sFv were incubated with either 2% bovine serum albumin (BSA), as negative control, or with 2% BSA containing biotinylated antigen (0.1 μg/well, final concentration) in pre-blocked microtiter plates overnight at 4° C. The mixtures were then transferred to streptavidin-coated (0.1 μg/well, final concentration) microtiter plates. […] Bound IgG was detected with alkaline phosphatase conjugated to goat anti-mouse IgG.
# Four rounds of selection were performed with decreasing concentrations of antigen at each round (i.e., 100 nM, 50 nM, 10 nM, 1 nM). […] Bound sFv was detected with α-9E10 IgG followed by alkaline phosphatase conjugated goat anti-mouse IgG.
# To characterize the precise binding properties of the intrabody of the invention, further qualitative and quantitative studies of sFv binding to immobilized antigen were conducted in vitro. […] The kinetics of association and dissociation were determined for the C4 sFv antibody in the BIAcore 2000 (FIG. 11B).
molecule,measurement,setting,value
"C4 sFv: human single-chain Fv intrabody from phage display, specific for the 17 N-terminal residues of huntingtin; SEQ ID NO: 6 (protein) scFv: QVQLQESGGGLVQPGGSLRLSCAASGFTFSSYSMSWVRQAPGKGLEWVAVISYDGSNKYYADSVKGRFTISRDNSKNTLYLQMNSLRAEDTAVYYCARDRYFDLWGRGTLVTVSSGGGGSGGGGSGGGGSQSALTQPASVSGSPGQSITISCTGTSSDIGAYNYVSWYQQYPGKAPKLLIYDVSNRPSGISNRFSGSKSGDTASLTISGLQAEDEADYYCSSFANSGPLFGGGTKVTVL",sFv co-purified with GST-DRPLA-Q35,[1],not detected
same,sFv co-purified with antigens containing the Nt-HD sequence,[2],present at about the same intensity as the other proteins
same,extent of aggregation,"[3]; intrabody to antigen plasmid ratio 3:1, HD-polyQ72-eGFP or HD-polyQ104-eGFP",qualitative decrease in the extent of aggregation
same,number of SDS-insoluble fluorescent aggregates,[3],pronounced reduction in aggregation
same,number of SDS-insoluble fluorescent aggregates,[3]; listed as C4,significantly reduced the number of aggregates
same,ELISA binding specificity,[4],binds specifically to the N-terminal HD sequence
same,ELISA binding specificity,[4]; listed as cc-Nt-HD-C4 sFv,reacted preferentially with antigens containing the Nt-HD flanking peptide sequence
